Laboratory results: paper doi:10.1101/2021.09.12.459962 (bioRxiv, 2021)

Biological target: the molecule itself
Assay: AUC; sedimentation equilibrium of UDS1-His at 4 µM, 6000 to 9000 rpm, single-species model; monomers to dimer

B1: UDS1-His6 (natural protein, Aspergillus nidulans, UniProt Q5B1I5 1-941, looked up)
chain: MNGFDFRSSQSSYGDPRHFSDASYGVPQPPPTKVLLDGYRDALGPANAEKSLYNSANPTSHPRRSIPPSANDPVAMYLLTETAMGDSVNYEILSVEEVEGLKKELRVLSNRMNAAKRKLALELKLRDAAMSLSRLHHKEEHDVDGSGRNEPNTDKTNEELVHINRKCEELSMDIWYSERKVQEIQKRLLEHTAGVLQLTHKGLKKNSKNGMPHTPESLSSSNTVDDFDDRSLYKASDPLDGPETYETRAPPPDNLAHDNSMQETERKLESMSSRLRDMLLQLDPDSEFSQIPQPSTSGDSFEPSAMIDAHLRYIENGISALGSLPKADMASQSLDPVSEQQLVEMRTQLLSIMENPGLPRAQTLPTAPDPTDSDLAKHLTFLSVGINGLESRVEKLLEQKSILTTQIQQQRELNSKSDAERDAKIADLIEQLAHLRKELELAEREGQQSKEDHDLTLKELEDVRRELLESRETHSSRDLGNSKNEAQQHAEAEIARLQSVIQEIQQEKDEHCEAHRRAEAEIDRLQAVIHQIQQEKDEHREAHERAEAETTRLQTIVEEVQQEKDEQHEAHGRAVAEVTRLQDIIQKIEQEKIERHEADERAEAEIVRLRDTIREIQQEKEEHHEARVRLEGEVARLQGVIGQLQESAESRESAEQQVAQLEETIHQIRHDADIRIKEATDSRAQADAKIAQLEGAMNEVRESLESQLKEATEARNNAEENSTRLQKELTELERDVVRAQTELTMVKAELDGAYGTRAQRAAEAAADPALFHELDELKARNFEMAEELAALKAGKPGSGDVHNRVETLERELRETVDDYEAMTKASIEFEKERERFESMIDSLRDRCEQLETQLNEERISWMGANNSASSMGRDGPYETTSTMVLKNEFKKMMRDTRAENMKILKAEQEERRKLEAILRNLKREQANLSGKSNISRTVTAS
notes: UDS1, product of AN5595 of Aspergillus nidulans, 941 residues; UDS1 cDNA cloned as NheI/NotI in pET21b; Mr 106,857 Da; Dimer by sedimentation equilibrium; also called purified UDS1; bacterially expressed UDS1; source: E. coli BLB21 pRIL, purified (Ni-Sepharose, Superdex gel filtration)
With B1 the “stoichiometry N” value was 2.
